# Experimental data taken from patent US20100098683A1 (Dana-Farber, published 2010).
# Molecular target: T1, hFc-MUC1-C/ED (MUC1-C extracellular domain fused to human Fc) (human, UniProt P15941 1098-1155, secreted from CHO-K1 cells; the filing reports N-linked glycosylation of MUC1-C at Asn-36)
# T1 construct: Purified on protein A; also called hFc-MUC1-C extracellular domain; not shown: human Fc fragment (hFc) amplified from the CD5-IgG1 plasmid (Aruffo et al., 1990)
# T1 sequence: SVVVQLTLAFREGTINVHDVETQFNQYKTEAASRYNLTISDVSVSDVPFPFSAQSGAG
# Test: SPR (BIACORE 3000, 25 C), galectin-3(63-250) amine-coupled to a CM5 chip, hFc-MUC1-C/ED injected at 0-100 nM, 1:1 binding with drifting baseline; galectin-3(63-250), CRD fragment
binder,measurement,value
"galectin-3(63-250) (ligand, Fragment that contains the CRD, purified from E. coli and coupled to a CM5 chip) YHGAPGAYPGAPAPGVYPGPPSGPGAYPSSGQPSAPGAYPATGPYGAPAGPLIVPYNLPLPGGVVPRMLITILGTVKPNANRIALDFQRGNDVAFHFNPRFNENNRRVIVCNTKLDNNWGREERQSVFPFESGKPFKIQVLVEPDHFKVAVNDAHLLQYNHRVKKLNEISKLGISGDIDLTSASYTMI",Kd,9.8 nM
